Results from PMC4743056.

What was measured:
Assay in all cases: fluorescence polarization
hPRDM9A ZnF8-11 = hPRDM9A ZnF8-11 (Homo sapiens, allele A, UniProt Q9NQV7 717-830)
hPRDM9A ZnF8-13 = hPRDM9A ZnF8-13 (Homo sapiens, allele A, UniProt Q9NQV7 717-894)
[1] = biological target: hPRDM9A ZnF8-12 (allele A) (Homo sapiens, allele A, UniProt Q9NQV7 717-858)
[2] = biological target: hPRDM9 ZnF8-12 N789H (allele L20) (Homo sapiens, allele L20, UniProt Q9NQV7 717-858, N790H)
Chain of hPRDM9 ZnF8-12 N789H (allele L20) (Q9NQV7 717-858 N790H): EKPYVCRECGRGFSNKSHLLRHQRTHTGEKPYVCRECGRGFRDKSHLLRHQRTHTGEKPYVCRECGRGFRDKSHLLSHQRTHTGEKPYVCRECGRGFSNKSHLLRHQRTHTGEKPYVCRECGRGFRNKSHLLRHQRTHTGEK

Chain of hPRDM9A ZnF8-13 (Q9NQV7 717-894): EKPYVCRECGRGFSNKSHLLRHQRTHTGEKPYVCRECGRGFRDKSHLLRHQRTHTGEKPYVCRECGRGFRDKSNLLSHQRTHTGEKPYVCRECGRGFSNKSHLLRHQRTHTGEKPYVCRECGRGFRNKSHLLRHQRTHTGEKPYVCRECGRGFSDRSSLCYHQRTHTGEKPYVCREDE
Chain of hPRDM9A ZnF8-12 (allele A) (Q9NQV7 717-858): as the sequence (Q9NQV7 717-858 N790H) above, with H74N counted along it
Chain of hPRDM9A ZnF8-11 (Q9NQV7 717-830): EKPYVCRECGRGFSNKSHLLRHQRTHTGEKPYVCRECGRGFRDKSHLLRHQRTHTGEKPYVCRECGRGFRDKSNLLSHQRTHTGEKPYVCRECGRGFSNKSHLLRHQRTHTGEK

B1: THE1B 24-bp (dsDNA)
DNA 1: GAGGCCTCCCTAGCCACGTGGAAC
DNA 2: GTTCCACGTGGCTAGGGAGGCCTC
Question: B1 was tested. Which binding signal (hPRDM9A ZnF8-11) did it give?
Answer: The binding signal was ~12 fold lower affinity than ZnF8-12.

Question: And the binding signal (hPRDM9A ZnF8-13)?
Answer: Its binding signal is ~1 fold (similar to ZnF8-12).

B2: THE1B with 5mC at position 17 bottom strand (dsDNA)
DNA 1: GAGGCCTCCCTAGCCACGTGGAAC
DNA 2: GTTCCACGTGGCTAGGGAGGCCTC
modifications: 5-methylcytosine at bottom strand base 7 (C of G:C bp 17)
Question: For B2, which binding signal [1] is on record?
Answer: The binding signal was ~1 fold (same as unmethylated).

B3: THE1B T:A to C:G (dsDNA)
DNA 1: GAGGCCTCCCCAGCCACGTGGAAC
DNA 2: GTTCCACGTGGCTGGGGAGGCCTC
Question: Does B3 bind [2]?
Answer: Result: binds
